Consider 14 molecules from patent US20090325290A1 (published 2009).

As a reminder, the Kd is the constant that tells how readily two partners part at equilibrium. Lower therefore signals higher affinity. The koff is a measure of how fast the partners let go of each other. A high value points to a short-lived complex. Broadly, the kon is a measure of how fast the partners come together. Read a high kon as fast association.

The target of assay [1] is human-mouse chimeric molecule DR-IE (human; mouse). Kind of assay: cell-based or functional assay.
The target of a further assay is T1, human apotransferrin (human, UniProt P02787 20-698).
T1 construct: negative control protein
Kind of assay: ELISA, antigen coated at 10 µg/well. As to the method: (§1) After washing in PBS the anti-human IgG F(ab)₂-peroxidase-conjugate at a 1:10,000 dilution in TBS (supplemented with 5% w/v non-fat dry-milk/0.05% v/v Tween 20) was added to each well for 1 h. Final washes were carried out in PBS followed the addition the substrate POD (Roche). Color-development was read at 370 nm in an ELISA-Reader.
Background: In an ELISA, binding on a coated surface is turned into a signal by an enzyme label.

The target of assay [2] is T2, human MHC class II DR protein (DRA*0101/DRB1*0401), purified from PRIESS cells (human, UniProt P01903 26-254; P01911 30-266, limits assumed).
T2 construct: mature; 'mature' is my reading; also called HLA-DR protein; MHCII
T2 MHC II alpha: not shown
T2 MHC II beta: not shown
The assay can be described thus: SPR (BIAcore), scFv, chip density 500RU MHCII.

Assay [3] concerns the target T3, HLA-DR (DRA*0101/DRB1*0401) on the surface of PRIESS cells (human, UniProt P01903 26-254; P01911 30-266).
T3 MHC II alpha: not shown
T3 MHC II beta: not shown
Kind of assay: cell-based or functional assay.

The next assay deals with T4, bovine serum albumine (bovine, UniProt P02769 25-607).
T4 construct: negative control protein; also called BSA
Kind of assay: ELISA, antigen coated at 10 µg/well. As to the method:
as §1

T1 sequence (P02787 20-698): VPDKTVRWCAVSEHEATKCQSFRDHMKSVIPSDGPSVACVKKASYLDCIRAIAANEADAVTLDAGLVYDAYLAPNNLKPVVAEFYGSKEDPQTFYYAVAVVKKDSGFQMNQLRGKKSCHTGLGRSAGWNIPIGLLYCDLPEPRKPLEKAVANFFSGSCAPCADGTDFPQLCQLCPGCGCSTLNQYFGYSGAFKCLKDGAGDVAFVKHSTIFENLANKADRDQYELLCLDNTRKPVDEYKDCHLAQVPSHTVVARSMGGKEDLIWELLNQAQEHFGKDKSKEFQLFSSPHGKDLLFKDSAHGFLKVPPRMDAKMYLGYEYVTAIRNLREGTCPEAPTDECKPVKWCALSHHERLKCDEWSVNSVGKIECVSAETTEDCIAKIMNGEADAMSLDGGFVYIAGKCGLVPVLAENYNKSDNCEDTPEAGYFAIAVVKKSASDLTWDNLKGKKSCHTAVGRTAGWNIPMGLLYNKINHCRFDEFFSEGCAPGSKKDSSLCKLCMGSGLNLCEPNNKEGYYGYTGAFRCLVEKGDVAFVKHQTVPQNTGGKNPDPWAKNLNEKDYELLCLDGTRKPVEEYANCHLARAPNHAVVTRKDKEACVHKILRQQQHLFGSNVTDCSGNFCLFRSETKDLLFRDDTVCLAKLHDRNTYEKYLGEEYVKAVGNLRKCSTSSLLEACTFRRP
T4 sequence (P02769 25-607 limits assumed): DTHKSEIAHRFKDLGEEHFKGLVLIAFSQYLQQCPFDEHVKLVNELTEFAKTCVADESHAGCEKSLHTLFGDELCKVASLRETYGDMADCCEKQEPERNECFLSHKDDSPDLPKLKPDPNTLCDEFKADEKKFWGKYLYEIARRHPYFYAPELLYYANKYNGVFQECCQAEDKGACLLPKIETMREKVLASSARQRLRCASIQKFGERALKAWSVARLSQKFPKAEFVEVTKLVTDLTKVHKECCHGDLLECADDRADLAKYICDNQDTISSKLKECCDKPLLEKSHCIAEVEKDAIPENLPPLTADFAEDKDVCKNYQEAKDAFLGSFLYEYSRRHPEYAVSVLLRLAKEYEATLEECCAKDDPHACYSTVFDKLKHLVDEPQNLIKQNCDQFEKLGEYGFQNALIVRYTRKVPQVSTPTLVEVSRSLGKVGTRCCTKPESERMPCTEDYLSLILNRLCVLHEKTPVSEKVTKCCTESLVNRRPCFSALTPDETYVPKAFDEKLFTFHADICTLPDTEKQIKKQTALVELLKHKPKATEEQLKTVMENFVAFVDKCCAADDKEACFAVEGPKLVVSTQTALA

B1: MS-GPC-8-6-47 (Fab form) (Fab, V domains shown)
VH: QVQLKESGPALVKPTQTLTLTCTFSGFSLSTSGVGVGWIRQPPGKALEWLALIDWDDDKYYSTSLKTRLTISKDTSKNQVVLTMTNMDPVDTATYYCARSPRYRGAFDYWGQGTLVTVSS
VL: DIVLTQPPSVSGAPGQRVTISCSGSESNIGSNYVSWYQQLPGTAPKLLIYDNNQRPSGVPDRFSGSKSGTSASLAITGLQSEDEADYYCQSYDYDHYVFGGGTKLTVLG
notes: Fab: VH-CH1-FLAG-STREP tag II
Take B1: in assay [1], the “IC50, inhibition of IL-2 secretion of T-Hyb 1 cells” value (“IC50, inhibition” for short) was 2.6 nM ((Fab)/2) and the “Maximum inhibition(%) of IL-2 secretion” value is 100%. Moreover, the binding result with human apotransferrin was “no binding (tested: 100 ng/well)”.

B2: MS-GPC-8-6-2 (IgG form) (antibody, V domains shown)
VH: QVQLKESGPALVKPTQTLTLTCTFSGFSLSTSGVGVGWIRQPPGKALEWLALIDWDDDKYYSTSLKTRLTISKDTSKNQVVLTMTNMDPVDTATYYCARSPRYRGAFDYWGQGTLVTVSS
VL: DIVLTQPPSVSGAPGQRVTISCSGSESNIGSNYVHWYQQLPGTAPKLLIYDNNQRPSGVPDRFSGSKSGTSASLAITGLQSEDEADYYCQSYDYDHYVFGGGTKLTVLG
For B2, in assay [1], the “IC50, inhibition” value was 3.6 nM and the “Maximum inhibition(%) of IL-2 secretion” value is 100%.

B3: MS-GPC-1 (scFv form) (scFv, V domains shown)
VH: EVQLKESGPALVKPTQTLTLTCTFSGFSLSTSGVGVGWIRQPPGKALEWLALIDWDDDKYYSTSLKTRLTISKDTSKNQVVLTMTNMDPVDTATYYCARQYGHRGGFDHWGQGTLVTVSS
VL: DIVLTQPPSVSGAPGQRVTISCSGSSSNIGSNYVSWYQQLPGTAPKLLIYDNNQRPSGVPDRFSGSKSGTSASLAITGLQSEDEADYYCQSYDFNESVFGGGTKLTVLG
Regarding B3, in assay [2], the Kd turned out to be 1500 nM, the koff was found to be 0.061 s⁻¹ and the kon came to 41300 M⁻¹ s⁻¹.

B4: MS-GPC-8-6 (IgG form) (antibody, V domains shown)
VH: QVQLKESGPALVKPTQTLTLTCTFSGFSLSTSGVGVGWIRQPPGKALEWLALIDWDDDKYYSTSLKTRLTISKDTSKNQVVLTMTNMDPVDTATYYCARSPRYRGAFDYWGQGTLVTVSS
VL: DIVLTQPPSVSGAPGQRVTISCSGSSSNIGSNYVSWYQQLPGTAPKLLIYDNNQRPSGVPDRFSGSKSGTSASLAITGLQSEDEADYYCQSYDYDHYVFGGGTKLTVLG
As to B4, in assay [1], the “IC50, inhibition” value is 6.7 nM and the “Maximum inhibition(%) of IL-2 secretion” value amounted to 100%.

B5: MS-GPC-8-6-13 (Fab form) (Fab, V domains shown)
VH: QVQLKESGPALVKPTQTLTLTCTFSGFSLSTSGVGVGWIRQPPGKALEWLALIDWDDDKYYSTSLKTRLTISKDTSKNQVVLTMTNMDPVDTATYYCARSPRYRGAFDYWGQGTLVTVSS
VL: DIVLTQPPSVSGAPGQRVTISCSGSESNIGANYVTWYQQLPGTAPKLLIYDNNQRPSGVPDRFSGSKSGTSASLAITGLQSEDEADYYCQSYDYDHYVFGGGTKLTVLG
notes: Fab: VH-CH1-FLAG-STREP tag II; also called 305D3
Take B5: in assay [1], the “IC50, inhibition” value is 2.1 nM ((Fab)/2) and the “Maximum inhibition(%) of IL-2 secretion” value came out at 100%. Further, the binding result with human apotransferrin was “no binding (tested: 100 ng/well)”.

B6: MS-GPC-10 (Fab form) (Fab, V domains shown)
VH: QVQLKESGPALVKPTQTLTLTCTFSGFSLSTSGVGVGWIRQPPGKALEWLALIDWDDDKYYSTSLKTRLTISKDTSKNQVVLTMTNMDPVDTATYYCARQLHYRGGFDLWGQGTLVTVSS
VL: DIVLTQPPSVSGAPGQRVTISCSGSSSNIGSNYVSWYQQLPGTAPKLLIYDNNQRPSGVPDRFSGSKSGTSASLAITGLQSEDEADYYCQSYDLTMGVFGGGTKLTVLG
On to B6, for which, in assay [3], the “EC50 of cell killing, as bivalent cross-linked (Fab)dimer” value (shortened to “EC50 of cell killing … (Fab)dimer”) was under 60 nM and the “EC50 of cell killing, cross-linked Fab, as monovalent fragment” value (shortened to “EC50 of cell killing, cross-linked Fab”) was under 120 nM.

B7: MS-GPC-8-6-19 (Fab form) (Fab, V domains shown)
VH: QVQLKESGPALVKPTQTLTLTCTFSGFSLSTSGVGVGWIRQPPGKALEWLALIDWDDDKYYSTSLKTRLTISKDTSKNQVVLTMTNMDPVDTATYYCARSPRYRGAFDYWGQGTLVTVSS
VL: DIVLTQPPSVSGAPGQRVTISCSGSESNIGSNYVAWYQQLPGTAPKLLIYDNNQRPSGVPDRFSGSKSGTSASLAITGLQSEDEADYYCQSYDYDHYVFGGGTKLTVLG
Consider B7, for which, in assay [1], the “IC50, inhibition” value was 5.3 nM ((Fab)/2) and the “Maximum inhibition(%) of IL-2 secretion” value stood at 100%.

B8: MS-GPC-8-6-2 (Fab form) (Fab, V domains shown)
VH: QVQLKESGPALVKPTQTLTLTCTFSGFSLSTSGVGVGWIRQPPGKALEWLALIDWDDDKYYSTSLKTRLTISKDTSKNQVVLTMTNMDPVDTATYYCARSPRYRGAFDYWGQGTLVTVSS
VL: DIVLTQPPSVSGAPGQRVTISCSGSESNIGSNYVHWYQQLPGTAPKLLIYDNNQRPSGVPDRFSGSKSGTSASLAITGLQSEDEADYYCQSYDYDHYVFGGGTKLTVLG
As to B8, in assay [1], the “IC50, inhibition” value was 4.7 nM ((Fab)/2) and the “Maximum inhibition(%) of IL-2 secretion” value is 100%.

B9: MS-GPC-8 (Fab form) (Fab, V domains shown)
VH: QVQLKESGPALVKPTQTLTLTCTFSGFSLSTSGVGVGWIRQPPGKALEWLALIDWDDDKYYSTSLKTRLTISKDTSKNQVVLTMTNMDPVDTATYYCARSPRYRGAFDYWGQGTLVTVSS
VL: DIVLTQPPSVSGAPGQRVTISCSGSSSNIGSNYVSWYQQLPGTAPKLLIYDNNQRPSGVPDRFSGSKSGTSASLAITGLQSEDEADYYCQSYDMPQAVFGGGTKLTVLG
notes: Fab: VH-CH1-FLAG-STREP tag II; also called B8-Fab; B8
Regarding B9, in assay [1], the “IC50, inhibition” value was 110 nM ((Fab)/2) and the “Maximum inhibition(%) of IL-2 secretion” value worked out at 100%. In assay [3], the “EC50 of cell killing … (Fab)dimer” value is under 60 nM and the “EC50 of cell killing, cross-linked Fab” value is under 120 nM. In addition, the binding result in the assay with human apotransferrin is “no binding (tested: 100 ng/well)”. Moreover, the binding result with bovine serum albumine was “no binding (tested: 100 ng/well)”.

B10: MS-GPC-8-27-10 (Fab form) (Fab, V domains shown)
VH: QVQLKESGPALVKPTQTLTLTCTFSGFSLSTSGVGVGWIRQPPGKALEWLALIDWDDDKYYSTSLKTRLTISKDTSKNQVVLTMTNMDPVDTATYYCARSPRYRGAFDYWGQGTLVTVSS
VL: DIVLTQPPSVSGAPGQRVTISCSGSESNIGANYVNWYQQLPGTAPKLLIYDNNQRPSGVPDRFSGSKSGTSASLAITGLQSEDEADYYCQSYDMNVHVFGGGTKLTVLG
notes: Fab: VH-CH1-FLAG-STREP tag II
Turning to B10, in assay [1], the “IC50, inhibition” value is 7.3 nM ((Fab)/2) and the “Maximum inhibition(%) of IL-2 secretion” value amounted to 100%. Moreover, the binding result in the assay with human apotransferrin is given as “no binding (tested: 100 ng/well)”. Further, the binding result with bovine serum albumine is on record as “no binding (tested: 100 ng/well)”.

B11: MS-GPC-1 (Fab form) (Fab, V domains shown)
VH: QVQLKESGPALVKPTQTLTLTCTFSGFSLSTSGVGVGWIRQPPGKALEWLALIDWDDDKYYSTSLKTRLTISKDTSKNQVVLTMTNMDPVDTATYYCARQYGHRGGFDHWGQGTLVTVSS
VL: DIVLTQPPSVSGAPGQRVTISCSGSSSNIGSNYVSWYQQLPGTAPKLLIYDNNQRPSGVPDRFSGSKSGTSASLAITGLQSEDEADYYCQSYDFNESVFGGGTKLTVLG
In the case of B11, in assay [3], the “EC50 of cell killing … (Fab)dimer” value was under 60 nM and the “EC50 of cell killing, cross-linked Fab” value was under 120 nM.

B12: MS-GPC-8-27-41 (Fab form) (Fab, V domains shown)
VH: QVQLKESGPALVKPTQTLTLTCTFSGFSLSTSGVGVGWIRQPPGKALEWLALIDWDDDKYYSTSLKTRLTISKDTSKNQVVLTMTNMDPVDTATYYCARSPRYRGAFDYWGQGTLVTVSS
VL: DIVLTQPPSVSGAPGQRVTISCSGSESNIGNNYVQWYQQLPGTAPKLLIYDNNQRPSGVPDRFSGSKSGTSASLAITGLQSEDEADYYCQSYDMNVHVFGGGTKLTVLG
notes: Fab: VH-CH1-FLAG-STREP tag II; also called 1D09C3
Take B12: in assay [1], the “IC50, inhibition” value is 3.6 nM ((Fab)/2) and the “Maximum inhibition(%) of IL-2 secretion” value was found to be 100%. Besides, the binding result with human apotransferrin is on record as “no binding (tested: 100 ng/well)”.

B13: MS-GPC-8-6-27 (Fab form) (Fab, V domains shown)
VH: QVQLKESGPALVKPTQTLTLTCTFSGFSLSTSGVGVGWIRQPPGKALEWLALIDWDDDKYYSTSLKTRLTISKDTSKNQVVLTMTNMDPVDTATYYCARSPRYRGAFDYWGQGTLVTVSS
VL: DIVLTQPPSVSGAPGQRVTISCSGSDSNIGANYVTWYQQLPGTAPKLLIYDNNQRPSGVPDRFSGSKSGTSASLAITGLQSEDEADYYCQSYDYDHYVFGGGTKLTVLG
notes: Fab: VH-CH1-FLAG-STREP tag II
Regarding B13, in assay [1], the “IC50, inhibition” value is 3 nM ((Fab)/2) and the “Maximum inhibition(%) of IL-2 secretion” value worked out at 100%. Also, the binding result with human apotransferrin is listed as “no binding (tested: 100 ng/well)”.

B14: MS-GPC-8-27-7 (Fab form) (Fab, V domains shown)
VH: QVQLKESGPALVKPTQTLTLTCTFSGFSLSTSGVGVGWIRQPPGKALEWLALIDWDDDKYYSTSLKTRLTISKDTSKNQVVLTMTNMDPVDTATYYCARSPRYRGAFDYWGQGTLVTVSS
VL: DIVLTQPPSVSGAPGQRVTISCSGSESNIGNNYVGWYQQLPGTAPKLLIYDNNQRPSGVPDRFSGSKSGTSASLAITGLQSEDEADYYCQSYDMNVHVFGGGTKLTVLG
notes: Fab: VH-CH1-FLAG-STREP tag II
Turning to B14, in assay [1], the “IC50, inhibition” value is 5.9 nM ((Fab)/2) and the “Maximum inhibition(%) of IL-2 secretion” value stood at 100%. Besides, the binding result with human apotransferrin is reported as “no binding (tested: 100 ng/well)”. The binding result in the assay with bovine serum albumine is “no binding (tested: 100 ng/well)”.
